Experimental data taken from article PMC10542519.

Assays:
[1] = target: PhiPA3 Chimallin C (ChmC; gp61), full-length (Pseudomonas phage PhiPA3); assay: SEC-MALS
[2] = target: PhiPA3 ChmC-ΔC (residues 204-251 removed) (Pseudomonas phage PhiPA3); assay: SEC-MALS

Substance	stoichiometry N [1]	stoichiometry N [2]
PhiPA3 Chimallin C (ChmC; gp61), full-length (natural protein)	4	
PhiPA3 ChmC-ΔC (residues 204-251 removed) (domain or fragment)		4
